The source of these data is article PMC12487865.

The target of the assay is FGFR1 (UniProt P16092). Briefly: co-IP, Nf2-Flag mutants with FGFR1-HA. Particulars: reference: wild-type Nf2.

With “Nf2 (Merlin) (from UniProt P46662) S315A”, the “binding against the reference” value (sites S315) is given as “lost”.

In the case of “Nf2 (Merlin) (from UniProt P46662) S518A”, the “binding against the reference” value (sites S518) is on record as “lost”.
